# Source: US20210244739A1
# Molecular target: human protein kinase R (PKR) (human) (UniProt P19525)
# Assay: cell-based or functional assay
# Sequence of UniProt P19525 (P19525 2-551 limits assumed): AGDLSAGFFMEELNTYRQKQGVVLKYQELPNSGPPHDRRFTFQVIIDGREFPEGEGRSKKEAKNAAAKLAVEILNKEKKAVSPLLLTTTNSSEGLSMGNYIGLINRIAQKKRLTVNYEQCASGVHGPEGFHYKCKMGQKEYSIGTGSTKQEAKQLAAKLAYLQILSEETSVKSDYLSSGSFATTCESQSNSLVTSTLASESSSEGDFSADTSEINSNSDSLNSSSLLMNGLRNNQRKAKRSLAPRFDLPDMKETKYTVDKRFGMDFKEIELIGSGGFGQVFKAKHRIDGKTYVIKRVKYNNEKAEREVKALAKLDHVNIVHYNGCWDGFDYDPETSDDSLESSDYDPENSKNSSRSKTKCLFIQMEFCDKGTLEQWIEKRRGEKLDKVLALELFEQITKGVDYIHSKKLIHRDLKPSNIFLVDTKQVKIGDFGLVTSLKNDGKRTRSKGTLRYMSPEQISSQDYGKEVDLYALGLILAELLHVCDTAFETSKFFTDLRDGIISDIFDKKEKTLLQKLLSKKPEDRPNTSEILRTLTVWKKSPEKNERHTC
substance,measurement,value
Yaba monkey tumor virus 012 (K3 ortholog),virus titre increase between 5 hpi and 48 hpi in HeLa cells,> 10 fold
